Experimental data from patent US20130079278A1 (Novo Nordisk, published 2013).
*1 amine or outer side, *2 acyl side, *3 side chain or, on linkers, in order; H or OH if unused. Where no end group is shown, it is not given here. Side-chain parts run from the residue outwards. The star is where a group is joined. X1 = 4‑(16-(1H-tetrazol-5-yl)hexadecanoylsulfamoyl)butanoyl, O=C(CCCCCCCCCCCCCCCc1nnn[nH]1)NS(=O)(=O)CCCC(=O)*; X2 = 4‑(16-(1H-tetrazol-5-yl)hexadecanoylsulfamoyl)butanoyl, O=C(CCCCCCCCCCCCCCCc1nn[nH]n1)NS(=O)(=O)CCCC(=O)*; C18 diacid = O=C(O)CCCCCCCCCCCCCCCCC(=O)*; C16 diacid = O=C(O)CCCCCCCCCCCCCCC(=O)*; γGlu = O=C(O)[C@H](CCC(=O)[*:2])N[*:1]; AEEA = NCCOCCOCC(=O)O

Target: glucagon receptor (human, UniProt P47871 26-477)
Sequence (P47871 26-477): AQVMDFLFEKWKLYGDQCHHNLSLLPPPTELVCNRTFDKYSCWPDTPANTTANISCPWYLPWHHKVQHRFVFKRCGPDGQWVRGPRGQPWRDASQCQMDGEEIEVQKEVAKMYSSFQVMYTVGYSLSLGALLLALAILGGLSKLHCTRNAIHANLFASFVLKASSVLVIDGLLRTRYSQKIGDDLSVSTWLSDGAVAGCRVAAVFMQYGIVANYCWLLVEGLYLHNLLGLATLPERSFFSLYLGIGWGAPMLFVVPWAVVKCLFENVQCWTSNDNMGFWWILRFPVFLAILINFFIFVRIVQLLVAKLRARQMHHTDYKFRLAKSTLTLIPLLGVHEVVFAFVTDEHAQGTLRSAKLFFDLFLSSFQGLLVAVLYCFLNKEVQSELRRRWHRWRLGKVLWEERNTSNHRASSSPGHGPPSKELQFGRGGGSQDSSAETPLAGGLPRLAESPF
Test: cell-based or functional assay

Binder	Assay (I) Glucagon [EC50]
HSQGTFTSDYSKYLDLRRAQDFVK([γGlu-γGlu-AEEA-AEEA-γGlu-C16 diacid])WLLST	0.039 nM
HSQGTFTSDYSRYLDLRRAQDFVK([γGlu-γGlu-AEEA-AEEA-γGlu-C18 diacid])WLLAT	0.253 nM
HSHGTFTSDYSKYLETRRAQDFVK([γGlu-γGlu-AEEA-AEEA-γGlu-C18 diacid])WLLNT	0.036 nM
HSQGTFTSDYSRYLDERRAQDFVK([γGlu-γGlu-AEEA-AEEA-γGlu-C16 diacid])WLLST	0.029 nM
HSQGTFTSDYSKYLDVRRAQDFVK([γGlu-γGlu-AEEA-AEEA-γGlu-C18 diacid])WLLNT	0.081 nM
HSQGTFTSDYSRYLDLRRAQDFVK([γGlu-γGlu-γGlu-C16 diacid])WLLST	0.027 nM
HSQGTFTSDYSKYLDLRRAQDFVK([γGlu-γGlu-γGlu-γGlu-C18 diacid])WLLST	0.126 nM
HSQGTFTSDYSKYLDARRAQDFVK([γGlu-γGlu-AEEA-AEEA-γGlu-C16 diacid])WLLST	0.016 nM
HSQGTFTSDYSKYLDLRRAQDFVK([γGlu-γGlu-γGlu-γGlu-C18 diacid])WLLST-NH2 (N-terminus assumed; SMILES CC(C)C[C@H](NC(=O)[C@H](CC(=O)O)NC(=O)[C@H](CC(C)C)NC(=O)[C@H](Cc1ccc(O)cc1)NC(=O)[C@H](CCCCN)NC(=O)[C@H](CO)NC(=O)[C@H](Cc1ccc(O)cc1)NC(=O)[C@H](CC(=O)O)NC(=O)[C@H](CO)NC(=O)[C@@H](NC(=O)[C@H](Cc1ccccc1)NC(=O)[C@@H](NC(=O)CNC(=O)[C@H](CCC(N)=O)NC(=O)[C@H](CO)NC(=O)[C@@H](N)Cc1c[nH]cn1)[C@@H](C)O)[C@@H](C)O)C(=O)N[C@@H](CCCNC(=N)N)C(=O)N[C@@H](CCCNC(=N)N)C(=O)N[C@@H](C)C(=O)N[C@@H](CCC(N)=O)C(=O)N[C@@H](CC(=O)O)C(=O)N[C@@H](Cc1ccccc1)C(=O)N[C@H](C(=O)N[C@@H](CCCCNC(=O)CC[C@H](NC(=O)CC[C@H](NC(=O)CC[C@H](NC(=O)CC[C@H](NC(=O)CCCCCCCCCCCCCCCCC(=O)O)C(=O)O)C(=O)O)C(=O)O)C(=O)O)C(=O)N[C@@H](Cc1c[nH]c2ccccc12)C(=O)N[C@@H](CC(C)C)C(=O)N[C@@H](CC(C)C)C(=O)N[C@@H](CO)C(=O)N[C@H](C(N)=O)[C@@H](C)O)C(C)C)	0.812 nM
HSQGTFTSDYSRYLDLRRAQDFVK([γGlu-γGlu-γGlu-γGlu-C16 diacid])WLLST	0.109 nM
HSQGTFTSDYSRYLDARRAQDFVK([γGlu-γGlu-γGlu-C18 diacid])WLLST	0.066 nM
HSQGTFTSDYSRYLESRRAQDFVK([γGlu-γGlu-AEEA-AEEA-γGlu-C16 diacid])WLLST	0.14 nM
HSQGTFTSDYSRYLDLRRAQDFVK([γGlu-γGlu-AEEA-AEEA-γGlu-C18 diacid])WLLGT	0.47 nM
HSQGTFTSDYSKYLDIRRAQDFVK([γGlu-γGlu-AEEA-AEEA-γGlu-C18 diacid])WLLNT	0.081 nM
HSQGTFTSDYSRYLDARRAQDFVK([γGlu-γGlu-AEEA-AEEA-γGlu-C16 diacid])WLLST	0.022 nM
HSQGTFTSDYSRYLDARRAQDFVK([γGlu-γGlu-γGlu-γGlu-C16 diacid])WLLST	0.106 nM

Binder	Assay (I) Glucagon [EC50]
HSQGTFTSDYSRYLDLRRAQDFVK([γGlu-γGlu-AEEA-AEEA-γGlu-C16 diacid])WLLAT	0.064 nM
HSQGTFTSDYSKYLDERRAQDFVK([γGlu-γGlu-AEEA-AEEA-γGlu-C16 diacid])WLLST	0.017 nM
HSQGTFTSDYSKYLESRRAQDFVK([γGlu-γGlu-AEEA-AEEA-γGlu-C16 diacid])WLLST	0.071 nM
HSQGTFTSDYSRYLDARRAQDFVK([γGlu-γGlu-γGlu-C16 diacid])WLLST	0.016 nM
HSQGTFTSDYSKYLDVRRAQDFVK([γGlu-γGlu-γGlu-γGlu-C18 diacid])WLLST-NH2 (N-terminus assumed; SMILES CC(C)C[C@H](NC(=O)[C@H](Cc1c[nH]c2ccccc12)NC(=O)[C@H](CCCCNC(=O)CC[C@H](NC(=O)CC[C@H](NC(=O)CC[C@H](NC(=O)CC[C@H](NC(=O)CCCCCCCCCCCCCCCCC(=O)O)C(=O)O)C(=O)O)C(=O)O)C(=O)O)NC(=O)[C@@H](NC(=O)[C@H](Cc1ccccc1)NC(=O)[C@H](CC(=O)O)NC(=O)[C@H](CCC(N)=O)NC(=O)[C@H](C)NC(=O)[C@H](CCCNC(=N)N)NC(=O)[C@H](CCCNC(=N)N)NC(=O)[C@@H](NC(=O)[C@H](CC(=O)O)NC(=O)[C@H](CC(C)C)NC(=O)[C@H](Cc1ccc(O)cc1)NC(=O)[C@H](CCCCN)NC(=O)[C@H](CO)NC(=O)[C@H](Cc1ccc(O)cc1)NC(=O)[C@H](CC(=O)O)NC(=O)[C@H](CO)NC(=O)[C@@H](NC(=O)[C@H](Cc1ccccc1)NC(=O)[C@@H](NC(=O)CNC(=O)[C@H](CCC(N)=O)NC(=O)[C@H](CO)NC(=O)[C@@H](N)Cc1c[nH]cn1)[C@@H](C)O)[C@@H](C)O)C(C)C)C(C)C)C(=O)N[C@@H](CC(C)C)C(=O)N[C@@H](CO)C(=O)N[C@H](C(N)=O)[C@@H](C)O)	0.268 nM
HSQGTFTSDYSKYLDIRRAQDFVK([γGlu-γGlu-γGlu-γGlu-C18 diacid])WLLST-NH2 (N-terminus assumed; SMILES CC[C@H](C)[C@H](NC(=O)[C@H](CC(=O)O)NC(=O)[C@H](CC(C)C)NC(=O)[C@H](Cc1ccc(O)cc1)NC(=O)[C@H](CCCCN)NC(=O)[C@H](CO)NC(=O)[C@H](Cc1ccc(O)cc1)NC(=O)[C@H](CC(=O)O)NC(=O)[C@H](CO)NC(=O)[C@@H](NC(=O)[C@H](Cc1ccccc1)NC(=O)[C@@H](NC(=O)CNC(=O)[C@H](CCC(N)=O)NC(=O)[C@H](CO)NC(=O)[C@@H](N)Cc1c[nH]cn1)[C@@H](C)O)[C@@H](C)O)C(=O)N[C@@H](CCCNC(=N)N)C(=O)N[C@@H](CCCNC(=N)N)C(=O)N[C@@H](C)C(=O)N[C@@H](CCC(N)=O)C(=O)N[C@@H](CC(=O)O)C(=O)N[C@@H](Cc1ccccc1)C(=O)N[C@H](C(=O)N[C@@H](CCCCNC(=O)CC[C@H](NC(=O)CC[C@H](NC(=O)CC[C@H](NC(=O)CC[C@H](NC(=O)CCCCCCCCCCCCCCCCC(=O)O)C(=O)O)C(=O)O)C(=O)O)C(=O)O)C(=O)N[C@@H](Cc1c[nH]c2ccccc12)C(=O)N[C@@H](CC(C)C)C(=O)N[C@@H](CC(C)C)C(=O)N[C@@H](CO)C(=O)N[C@H](C(N)=O)[C@@H](C)O)C(C)C)	0.402 nM
HSQGTFTSDYSRYLDLRRAQDFVK([γGlu-γGlu-AEEA-AEEA-γGlu-C16 diacid])WLLGT	0.09 nM
HSQGTFTSDYSKYLDTRRAQDFVK([γGlu-γGlu-AEEA-AEEA-γGlu-C16 diacid])WLLST	0.017 nM
HSQGTFTSDYSKYLDIRRAQDFVK([γGlu-γGlu-γGlu-γGlu-C18 diacid])WLLST	0.189 nM
HSQGTFTSDYSRYLDLRRAQDFVK([γGlu-γGlu-AEEA-AEEA-γGlu-X2])WLLST	0.231 nM
HSQGTFTSDYSRYLESRRAQEFVK([γGlu-γGlu-AEEA-AEEA-γGlu-C16 diacid])WLLST	0.072 nM
HSQGTFTSDYSRYLDLRRAQDFVK([γGlu-γGlu-γGlu-γGlu-C18 diacid])WLLST	0.343 nM
HSQGTFTSDYSRYLDTRRAQDFVK([γGlu-γGlu-AEEA-AEEA-γGlu-C16 diacid])WLLST	0.025 nM
HSQGTFTSDYSRYLDLRRAQDFVK([γGlu-γGlu-AEEA-AEEA-X1])WLLST	0.357 nM
HSQGTFTSDYSKYLDVRRAQDFVK([γGlu-γGlu-γGlu-γGlu-C18 diacid])WLLST	0.134 nM
